This note sets out measurements from PMC8831596, “Structures of highly flexible intracellular domain of human α7 nicotinic acetylcholine receptor” (Nature Communications, 2022).

B4: PDZ domain of the intracellular scaffold protein PICK1 (domain or fragment, UniProt Q9NRD5 22-105, looked up)
chain: KVTLQKDAQNLIGISIGGGAQYCPCLYIVQVFDNTPAALDGTVAAGDEITGVNGRSIKGKTKVEVAKMIQEVKGEVTIHYNKLQ
notes: PICK1, PDZ domain; also called PICK1 PDZ domain

Data set [1] deals with the molecule itself. Nature of the data set: SEC; Superdex 200 10/300 Increase GL, 10 mM sodium acetate pH 4.8, 100 mM NaCl, 0.05% LDAO; elution peak at 12.6 ml. A general note: SEC sorts molecules by how far they enter the pores of the column.
The target of data set [2] is B4. Put plainly: SPR; steady state; α7nAChR immobilised on an NTA sensor chip (1000-2000 RU), PICK1 PDZ domain flowed at 30 μl/min, 25 °C, Biacore 3000; receptor in 0.05% DDM; apparent dissociation constants, Langmuir isotherm, n=3. The note with it: both partners purified. In general terms: Surface plasmon resonance follows binding to a sensor surface in real time, without labels.

For data set [3], the target named is B4. Put plainly: SPR; steady state; α7nAChR immobilised on an NTA sensor chip (1000-2000 RU), PICK1 PDZ domain flowed at 30 μl/min, 25 °C, Biacore 3000; receptor in 0.05% LDAO; apparent dissociation constants, Langmuir isotherm, n=3. To be noted: both partners purified.
Data set [4] concerns the molecule itself. Nature of the data set: DEER ESR; MTSL-labelled TMD+ICD C219 in LDAO micelles; non-adjacent/adjacent distance ratio ~1.6.
Data set [5] deals with the molecule itself. Nature of the data set: not stated; result shown in Supplementary Fig. 2 (not shown); the methods tell only that the pentamer fraction was isolated by SEC (S200 10/300, 20 mM HEPES pH 7.4, 300 mM NaCl, 0.2% DPC or 0.1% LDAO).
For data set [6], the target named is T1, full-length human α7 nicotinic acetylcholine receptor (human, UniProt P36544 23-502).
T1 construct: human α7 nicotinic acetylcholine receptor, UniProtKB P36544 ACHA7_HUMAN, full length; also called α7nAChR; full length α7nAChR; source: E. coli Rosetta 2(DE3) pLysS, purified (NiNTA, SEC)
T1 sequence (P36544 23-502): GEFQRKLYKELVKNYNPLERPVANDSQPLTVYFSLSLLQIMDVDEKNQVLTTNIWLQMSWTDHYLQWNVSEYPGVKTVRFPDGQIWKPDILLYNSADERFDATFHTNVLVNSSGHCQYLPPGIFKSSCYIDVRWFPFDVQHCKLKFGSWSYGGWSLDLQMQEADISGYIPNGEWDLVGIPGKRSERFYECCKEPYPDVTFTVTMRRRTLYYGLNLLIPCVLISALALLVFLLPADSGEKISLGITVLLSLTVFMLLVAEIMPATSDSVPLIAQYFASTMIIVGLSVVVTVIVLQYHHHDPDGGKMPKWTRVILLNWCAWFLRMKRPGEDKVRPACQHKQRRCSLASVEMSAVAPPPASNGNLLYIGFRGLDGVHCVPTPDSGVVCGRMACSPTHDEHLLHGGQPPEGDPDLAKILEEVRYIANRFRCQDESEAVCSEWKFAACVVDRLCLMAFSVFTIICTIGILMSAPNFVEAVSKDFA
Put plainly: SPR; steady state; α7nAChR immobilised on an NTA sensor chip (1000-2000 RU), PICK1 PDZ domain flowed at 30 μl/min, 25 °C, Biacore 3000; receptor in 0.05% DDM; apparent dissociation constants, Langmuir isotherm, n=3. To be noted: both partners purified.

For data set [7], the target named is T1, full-length human α7 nicotinic …. Nature of the data set: SPR; steady state; α7nAChR immobilised on an NTA sensor chip (1000-2000 RU), PICK1 PDZ domain flowed at 30 μl/min, 25 °C, Biacore 3000; receptor in 0.05% LDAO; apparent dissociation constants, Langmuir isotherm, n=3. The note with it: both partners purified.

B1: human α7 nicotinic acetylcholine receptor TMD+ICD construct used for NMR (domain or fragment)
chain: SNAEEELYYGLNLLIPCVLISALALLVFLLPADSGEKISLGITVLLSLTVFMLLVAEIMPSTSDSSPSIAQYFASTMIIVGLSVVVTVIVLQYHHHDPDGGKMPKWTRVILLNWCAWFLRMKRPGEDKVRPACQHKQRRCSLASVEMSAVAPPPASNGNLLYIGFRGLDGVHCVPTPDSGVVCGRMACSPTHDEHLLHGGQPPEGDPDLAKILEEVRYIANRFRCQDESEAVCSEWKFAACVVDRLCLMAFSVFTIICTIGILMSAPNFVEE
notes: also called α7nAChR(TMD+ICD)NMR; α7nAChR TMD-ICD; source: E. coli Rosetta 2(DE3) pLysS, purified (NiNTA, SEC)
As to B1, the stoichiometry N (usually a count of units in the complex or per binding partner) in data set [1] was 5. Further, the Kd stood at 4.2 µM in data set [2] and 4 µM in data set [3].

B2: α7nAChR TMD+ICD C219, single-cysteine construct labelled with MTSL (domain or fragment)
chain: SNAEEELYYGLNLLIPCVLISALALLVFLLPADSGEKISLGITVLLSLTVFMLLVAEIMPSTSDSSPSIAQYFASTMIIVGLSVVVTVIVLQYHHHDPDGGKMPKWTRVILLNWCAWFLRMKRPGEDKVRPACQHKQRRCSLASVEMSAVAPPPASNGNLLYIGFRGLDGVHCVPTPDSGVVCGRMACSPTHDEHLLHGGQPPEGDPDLAKILEEVRYIANRFRCQDESEAVCSEWKFAACVVDRLCLMAFSVFTIICTIGILMSAPNFVEE
modifications: MTSL on C219
For B2, in data set [4], the “stoichiometry N” value stood at 5.

B3: human α7 nicotinic acetylcholine receptor TMD + ICD construct (L209-V472) (domain or fragment, UniProt P36544 231-494, looked up)
chain: LYYGLNLLIPCVLISALALLVFLLPADSGEKISLGITVLLSLTVFMLLVAEIMPATSDSVPLIAQYFASTMIIVGLSVVVTVIVLQYHHHDPDGGKMPKWTRVILLNWCAWFLRMKRPGEDKVRPACQHKQRRCSLASVEMSAVAPPPASNGNLLYIGFRGLDGVHCVPTPDSGVVCGRMACSPTHDEHLLHGGQPPEGDPDLAKILEEVRYIANRFRCQDESEAVCSEWKFAACVVDRLCLMAFSVFTIICTIGILMSAPNFV
notes: human α7 nicotinic acetylcholine receptor, transmembrane domain plus intracellular domain, 264 residues L209-V472; Single-cysteine, spin-labelled and isotope-labelled versions gave the NMR and ESR restraints for the structure; also called α7nAChR TMD + ICD; source: E. coli Rosetta 2(DE3) pLysS, purified (NiNTA, SEC; pentamer fraction, in DPC or LDAO)
Take B3: in data set [5], the “stoichiometry N” value is 5.
With B4, the Kd stood at 3.3 µM in data set [6] and 3.1 µM in data set [7].
